Source: patent US7838495B2, “Compositions and methods of use of EPB1, and ErbB3 binding protein” (University of Maryland, Baltimore, priority 2007, dated 2010)
Entries after “also recorded” stand apart in the source; their conditions may differ.

Tested on: C81 cells
Assay: Growth of C81 EBP1 transfectants (monolayer, soft agar, androgen-depleted media)
Format: cell-based, human
Method: FIG. 4A-C. EBP1 restoration ameliorates the hormone refractory phenotype A. (Left panel) Growth in monolayer culture. Equal numbers (5×10^4) of vector or EBP1 stably transfected cells were plated at Day 0 in complete media and viable cell numbers determined at the indicated times. Each point represents mean±S.E. of 3 wells. Representative of 3 experiments (Right panel). Colony growth in soft agar. C81 cells stably transfected with either pcDNA or EBP1 were plated in soft agar at the cell densities indicated and colony numbers assessed at Day 10. Each point represents mean±S.E. of 3 dishes. Data is representative of 3 experiments. B. (Left Panel) Response of EBP1 and vector transfected C81 cells to dihydrotestosterone (DHT). EBP1 and vector control C81 transfected cells and early passage LNCaP cells were plated in complete media at 5×10^3 cells/well in 96 well plates for one day. The next day, cells were switched to steroid reduced medium for two days as described in the Materials and Methods. DHT was then added at the indicated concentrations. Cells were refed media every 3 days. Total cell numbers were determined seven days later by MTT assays. Each point represents mean±S.E. of 6 wells. Data is representative of two experiments. (Right Panel) Effect of Bicalutamide on DHT stimulated growth. Cells were plated as described in the Materials and Methods. After 2 days in steroid reduced medium, cells were fed with fresh steroid reduced medium with or without 10 μM bicalutamide (Casodex) in the presence or absence of 10 nM DHT. Total cell numbers were assessed 7 days later by MTT assay. Cells were refed media every 3 days. The data shown are mean±S.E. of six wells. Similar results were found in 2 independent experiments. C. EBP1 expression sensitizes C81 cells to chemotherapeutic drugs. […] Total cell numbers were determined by MTT assays 5 days later. […]
Western Blot Analysis. […] For soft agar growth assays, increasing concentrations of cells (as indicated) were plated in 35 mm Petri dishes in 0.3% agar in complete media and colonies were counted after 10 days of incubation (21). […]

B1: EBP1: ErbB3 binding protein (SEQ ID NO: 2), AR corepressor, here ectopically expressed in cancer cells by stable transfection of an expression plasmid (protein, listed as Homo sapiens)
chain: MSGEDEQQEQTIAEDLVVTKYKMGGDIANRVLRSLVEASSSGVSVLSLCEKGDAMIMEETGKIFKKEKEMKKGIAFPTSISVNNCVCHFSPLKSDQDYILKEGDLVKIDLGVHVDGFIANVAHTFVVDVAQGTQVTGRKADVIKAAHLCAEAALRLVKPGNQNTQVTEAWNKVAHSFNCTPIEGMLSHQLKQHVIDGEKTIIQNPTDQQKKDHEKAEFEVHEVYAVDVLVSSGEGKAKDAGQRTTIYKRDPSKQYGLKMKTSRAFFSEVERRFDAMPFTLRAFEDEKKARMGVVECAKHELLQPFNVLYEKEGEFVAQFKFTVLLMPNGPMRITSGPFEPDLYKSEMEVQDAELKALLQSSASRKTQKKKKKKASKTAENATSGETLEENEAGD
modifications: FLAG tag
C81, highest cell concentration tested
  decrease of colony growth in soft agar: approximately 50%
C81 EBP1 transfectants vs vector control, p<0.05
  growth rate in complete media: significantly decreased
C81 EBP1 transfectants, androgen depleted media
  growth in the absence of androgens relative to vector controls: reduced to one third; also recorded: reduced by ⅔
